Results from article PMC4312099 (Nature, 2014).

Target: recombinant human core Mitotic Checkpoint Complex (untagged CDC20, SBP-BUBR1, His6-MAD2) (human, UniProt Q12834;O60566;Q13257)
Experiment: pull-down

Chain of recombinant human core Mitotic Checkpoint Complex (untagged CDC20, SBP-BUBR1, His6-MAD2) (O60566 whole entry, chain 2 of 2): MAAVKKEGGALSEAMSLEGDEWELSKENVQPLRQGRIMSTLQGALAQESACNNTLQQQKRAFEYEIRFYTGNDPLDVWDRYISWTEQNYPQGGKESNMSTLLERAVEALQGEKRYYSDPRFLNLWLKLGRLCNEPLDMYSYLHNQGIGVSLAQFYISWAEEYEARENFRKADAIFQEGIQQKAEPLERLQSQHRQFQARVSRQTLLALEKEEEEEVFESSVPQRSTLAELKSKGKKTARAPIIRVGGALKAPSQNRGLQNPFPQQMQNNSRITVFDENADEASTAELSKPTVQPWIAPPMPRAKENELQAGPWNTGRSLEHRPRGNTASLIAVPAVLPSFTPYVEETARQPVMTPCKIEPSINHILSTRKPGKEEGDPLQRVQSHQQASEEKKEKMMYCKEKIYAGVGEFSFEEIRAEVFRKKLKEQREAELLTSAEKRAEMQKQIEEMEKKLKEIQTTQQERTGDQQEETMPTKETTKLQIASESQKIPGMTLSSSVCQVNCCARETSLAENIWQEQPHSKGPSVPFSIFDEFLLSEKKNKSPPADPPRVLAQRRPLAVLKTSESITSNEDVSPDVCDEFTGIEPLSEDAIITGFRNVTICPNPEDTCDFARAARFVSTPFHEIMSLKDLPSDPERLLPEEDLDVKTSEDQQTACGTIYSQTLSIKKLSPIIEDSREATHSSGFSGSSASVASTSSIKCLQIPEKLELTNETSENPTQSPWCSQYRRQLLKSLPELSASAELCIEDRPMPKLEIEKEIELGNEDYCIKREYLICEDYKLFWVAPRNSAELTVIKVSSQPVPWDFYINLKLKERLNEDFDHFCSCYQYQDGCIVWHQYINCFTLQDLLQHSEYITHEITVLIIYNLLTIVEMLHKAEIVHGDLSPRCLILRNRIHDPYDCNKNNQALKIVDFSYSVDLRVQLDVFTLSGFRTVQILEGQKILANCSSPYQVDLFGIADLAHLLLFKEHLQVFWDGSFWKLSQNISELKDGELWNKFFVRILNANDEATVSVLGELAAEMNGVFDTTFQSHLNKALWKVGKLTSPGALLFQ
Chain of recombinant human core Mitotic Checkpoint Complex (untagged CDC20, SBP-BUBR1, His6-MAD2) (Q13257 whole entry, chain 3 of 2): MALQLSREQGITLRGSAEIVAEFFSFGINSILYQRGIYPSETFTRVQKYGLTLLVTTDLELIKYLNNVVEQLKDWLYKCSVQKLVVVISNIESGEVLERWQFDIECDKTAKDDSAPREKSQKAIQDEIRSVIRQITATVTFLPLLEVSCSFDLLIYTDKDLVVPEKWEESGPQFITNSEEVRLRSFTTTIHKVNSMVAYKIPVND

B1: recombinant His6-tagged CDC20 ΔKILR (K129ILR/AAAA) mutant (natural protein)
chain: MAQFAFESDLHSLLQLDAPIPNAPPARWQRKAKEAAGPAPSPMRAANRSHSAGRTPGRTPGKSSSKVQTTPSKPGGDRYIPHRSAAQMEVASFLLSKENQPENSQTPTKKEHQKAWALNLNGFDVEEAAAAALSGKPQNAPEGYQNRLKVLYSQKATPGSSRKTCRYIPSLPDRILDAPEIRNDYYLNLVDWSSGNVLAVALDNSVYLWSASSGDILQLLQMEQPGEYISSVAWIKEGNYLAVGTSSAEVQLWDVQQQKRLRNMTSHSARVGSLSWNSYILSSGSRSGHIHHHDVRVAEHHVATLSGHSQEVCGLRWAPDGRHLASGGNDNLVNVWPSAPGEGGWVPLQTFTQHQGAVKAVAWCPWQSNVLATGGGTSDRHIRIWNVCSGACLSAVDAHSQVCSILWSPHYKELISGHGFAQNQLVIWKYPTMAKVAELKGHTSRVLSLTMSPDGATVASAAADETLRLWRCFELDPARRREREKASAAKSSLIHQGIR
B1: binds.
